Results published in article PMC9932110.
Blank lines part the entries; values can stand above or below the substance they belong to.

Tests used:
Armc8β (mouse) [1] = test: native gel or EMSA; blue native PAGE of Armc8β
Armc8β (mouse) [2] = test: SEC-MALS; Armc8β alone, dilution series from two purifications; molar mass at the peak against peak concentration, one-site and two-site models; monomer to dimer and higher
Armc8β (mouse) [3] = test: ITC; ITC-200, 25 °C, 20 mM tricine pH 8.0, 150 or 200 mM NaCl, 1 mM TCEP; 50-150 μM in the syringe, 10 times lower in the cell; one-site model
Wdr26 (mouse) = Wdr26 (mouse) (UniProt Q8C6G8); test: as above
muskelin (rat) = muskelin (rat) (UniProt Q99PV3); test: as above
Armc8β (mouse) [4] = test: SEC-MALS; Twa1, Armc8β and their mixture at low concentrations
[5] = target: Twa1–Armc8β complex (mouse) (UniProt Q9D7M1); test: SEC-MALS; Tβ complex, dilution series; molar mass at the peak against peak concentration, one-site model; Tβ heterodimer to higher order oligomers

Chain of Twa1 (Q9D7M1 whole entry): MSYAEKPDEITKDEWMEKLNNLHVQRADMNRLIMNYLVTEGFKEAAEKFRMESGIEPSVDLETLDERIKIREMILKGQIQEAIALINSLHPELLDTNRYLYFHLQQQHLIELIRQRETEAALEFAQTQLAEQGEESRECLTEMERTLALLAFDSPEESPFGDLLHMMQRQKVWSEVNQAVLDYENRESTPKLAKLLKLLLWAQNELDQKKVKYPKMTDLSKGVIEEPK
Chain of muskelin (rat) (Q99PV3 whole entry): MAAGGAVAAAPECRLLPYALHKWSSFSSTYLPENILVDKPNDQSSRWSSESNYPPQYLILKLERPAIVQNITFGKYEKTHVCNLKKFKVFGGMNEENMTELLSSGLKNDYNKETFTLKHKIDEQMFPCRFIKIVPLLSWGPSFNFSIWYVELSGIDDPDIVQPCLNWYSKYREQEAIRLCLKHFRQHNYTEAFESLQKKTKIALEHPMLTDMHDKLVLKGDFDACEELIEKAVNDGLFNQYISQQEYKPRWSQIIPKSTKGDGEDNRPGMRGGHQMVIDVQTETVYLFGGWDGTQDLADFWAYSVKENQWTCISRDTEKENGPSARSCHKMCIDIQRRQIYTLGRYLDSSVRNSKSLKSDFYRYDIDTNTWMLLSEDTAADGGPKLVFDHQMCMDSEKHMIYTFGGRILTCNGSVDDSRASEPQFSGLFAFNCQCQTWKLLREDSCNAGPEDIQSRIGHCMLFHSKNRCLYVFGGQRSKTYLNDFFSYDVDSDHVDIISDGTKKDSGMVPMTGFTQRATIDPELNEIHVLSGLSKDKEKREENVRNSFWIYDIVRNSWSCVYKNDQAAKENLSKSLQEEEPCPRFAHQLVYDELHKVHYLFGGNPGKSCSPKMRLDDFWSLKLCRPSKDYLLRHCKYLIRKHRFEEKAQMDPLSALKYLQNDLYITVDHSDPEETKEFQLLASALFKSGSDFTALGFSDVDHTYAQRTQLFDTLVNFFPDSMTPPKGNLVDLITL
Chain of Wdr26 (mouse) (Q8C6G8 other isoform, or with tags, fused parts or gaps): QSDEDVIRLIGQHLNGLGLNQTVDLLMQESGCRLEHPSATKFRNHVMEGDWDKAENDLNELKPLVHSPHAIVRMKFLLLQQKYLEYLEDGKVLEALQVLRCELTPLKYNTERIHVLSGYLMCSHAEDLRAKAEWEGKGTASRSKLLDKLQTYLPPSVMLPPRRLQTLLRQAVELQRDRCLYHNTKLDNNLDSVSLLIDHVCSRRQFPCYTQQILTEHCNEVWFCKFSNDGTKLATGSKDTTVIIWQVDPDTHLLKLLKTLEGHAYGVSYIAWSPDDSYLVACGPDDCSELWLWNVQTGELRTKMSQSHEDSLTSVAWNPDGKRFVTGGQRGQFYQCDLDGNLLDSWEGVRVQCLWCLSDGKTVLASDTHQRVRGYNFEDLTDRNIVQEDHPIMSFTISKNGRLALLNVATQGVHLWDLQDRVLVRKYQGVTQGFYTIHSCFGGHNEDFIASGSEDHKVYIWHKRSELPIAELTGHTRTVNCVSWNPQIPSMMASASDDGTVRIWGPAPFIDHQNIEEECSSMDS

stoichiometry N (Armc8β (mouse) [1]): 3 | KD high (two-site binding model) (Armc8β (mouse) [2]): 1800 nM | KD low (two-site binding model) (Armc8β (mouse) [2]): > 40000 nM | Kd (Armc8β (mouse) [2]): 5100 nM | stoichiometry N (Armc8β (mouse) [2]): 1 to 2
Substance: Armc8β (natural protein)

Kd (Armc8β (mouse) [3]): 8.1 nM | Kd (Wdr26 (mouse)): 3.4 nM | stoichiometry N (Wdr26 (mouse)): 0.95 | Kd (muskelin (rat)): 1.7 nM | stoichiometry N (muskelin (rat)): 1
Substance: RanBP9–Twa1 complex (from UniProt P69566 1-653; Q9D7M1 1-228)

stoichiometry N (Armc8β (mouse) [4]): 1 | Kd (Armc8β (mouse) [3]): 34.4 nM
Substance: Twa1 (from UniProt Q9D7M1 1-228) (natural protein)

Kd [5]: 6200 nM | stoichiometry N [5]: 8.2
Substance: Twa1–Armc8β complex (from UniProt Q9D7M1 1-228)
